{"source": "paper PMC4196048", "about": "(The Journal of Membrane Biology, 2014)", "proteins": {"B1": {"name": "LPS-free OmpF refolded from inclusion bodies, reconstituted into Amphipol A8-35 (natural protein)", "chain": "MEIYNKDGNKVDLYGKAVGLHYFSKGNGENSYGGNGDMTYARLGFKGETQINSDLTGYGQWEYNFQGNNSEGADAQTGNKTRLAFAGLKYADVGSFDYGRNYGVVYDALGYTDMLPEFGGDTAYSDDFFVGRVGGVATYRNSNFFGLVDGLNFAVQYLGKNERDTARRSNGDGVGGSISYEYEGFGIVGAYGAADRTNLQEAQPLGNGKKAEQWATGLKYDANNIYLAANYGETRNATPITNKFTNTSGFANKTQDVLLVAQYQFDFGLRPSIAYTKSKAKDVEGIGDVDLVNYFEVGATYYFNKNMSTYVDYIINQIDSDNKLGVGSDDTVAVGIVYQF"}}, "molecular_target": "the molecule itself", "assay": "negative-stain transmission electron microscopy"}
{"protein": "B1", "values": [{"measurement": "binding result", "value": "binds"}]}
